The target in this series is T1, mCherry-U2AF35 (UniProt Q01081).
T1 sequence: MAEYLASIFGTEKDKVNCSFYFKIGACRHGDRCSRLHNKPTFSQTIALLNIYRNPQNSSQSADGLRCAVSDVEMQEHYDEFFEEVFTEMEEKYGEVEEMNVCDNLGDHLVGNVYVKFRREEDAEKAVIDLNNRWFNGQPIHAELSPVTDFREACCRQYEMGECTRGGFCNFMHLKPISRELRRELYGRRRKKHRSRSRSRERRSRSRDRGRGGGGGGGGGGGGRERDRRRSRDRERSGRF
Description: single-molecule colocalization/bleaching. The settings on record: 5' GMPS; HEK293T nuclear extract expressing fusion proteins, preincubated 15 min with ATP/phosphocreatine or ATP-depleted at 30 C; pre-mRNA 62.5 nM; +ATP reactions ….

GloC pre-mRNA displayed a binding signal (% RNA colocalized) of 20.
